Experiment: soluble on expression in E. coli; label from the status in PepcDB or PDB records

Soluble on expression in E. coli, soluble:
MLEKELSFADLSISLSELYEAMGYADAVPDEAVEKEVRGVLGRVEAVTSPRFCFFISGGELDESKDSLSVGDTCFSIGKIITRQLRGSESFAFFAATAGTGFERFQHTLQQEGDMVKVYIADAIGSVIAEKTADCMEIALDEYIRDRGWRHTNRFSPGYCGWHVSEQKKLFPLFPSAEPCGIRLTDSGLMLPIKSVSGVIGLGDGVRKLEYTCGLCTYDRCYRRKQRGLEHHHHHH
SATLLHDAVMNPAEVVKQRLQMYNSQHQSAFSCIRTVWRTEGLGAFYRSYTTQLTMNIPFQSIHFITYEFLQEQVNPRRDYNPQSHIISGGLAGALAAAATTPLDVCKTLLNTQENMALSLANVSGRLSGMANAFRTVYQLNGLAGYFKGIQARVIYQMPSTAISWSVYEFFKYILTKRQLENRTLY
MSAEEKNLIEILEEGHKVDVVKYIDYVSAPQAGAIATFSGTTRDMFEGKTVLELRYEAYVPMATRCLSSICTTARSTWDIHKIAVAHRLGPVPVGETSVLIAVSSVHRADGLDACKFLIDELKASVPIWKKEVYTNGEIWKENSEFMEKRLELAEKRDSIVKKTVVEEHRRRGCCGSKVRVEEDEEHKDITGDNKSSS
MSNRVPTNILTGFLGVGKTTTILNLLKNKPENENWAVLVNEFGEIGIDGALMTDQGALIKEVPGGCMCCTAGVPMSVGITALLRQKPDRLLIEPTGLGHPKQVIATLTSEQYLPYVDLKATIALVDPRNLSDEKYTSNQNFVDQLDSADVVIGSKVDLCSSHDIDVFNDWVTDQTPAKVFSKLIHNGELPIEVLDIERVHGSASSHIETHHHEHAHQEPQFQLPPGEAFIRKENKGQGYFSCGWLFGAEYKFDFDKLFSMLSDLTAERVKAVVNTNQGCYAFNVANRVVSVNEISLEGFESRLEVIDSQLLPWDELEQILLQLAGVEGLEHHHHHH
MNTFKETLFSLKKSNYLLNESAQILNDCVVNNNEIDERLRNSIKFALGIINLASYCLKNEQEQLDHELNHGNEAPWEFSFNEAEQLIECTVKNNFGNEKLVDLIFHIGDAMETYRTTNIKFRVPKSYYDAKQQIRKVIKN
MSLLADLVNLDISDNSEKIIAEYIWVGGSGMDMRSKARTLPGPVTDPSKLPKWNYDGSSTGQAPGQDSEVILYPQAIFKDPFRRGNNILVMCDAYTPAGEPIPTNKRHAAAEIFANPDVIAEVPWYGIEQEYTLLQKDVNWPLGWPIGGFPGPQGPYYCSIGADKSFGRDIVDAHYKASLYAGINISGINGEVMPGQWEFQVGPSVGISAADEIWIARYILERITEIAGVVVSFDPKPIPGDWNGAGAHTNYSTKSMREEGGYEIIKKAIEKLGLRHKEHISAYGEGNERRLTGHHETADINTFLWGVANRGASIRVGRDTEKEGKGYFEDRRPASNMDPYVVTSMIAETTLLWNP
MGLVQTNDQQLFIGVDGGGSKCRATIYTADGTVLGTGVAGRANPLHGLAQTFESIEASAHQALLDAGMKATDSHLLVAGLGLAGVNVPRLYQDVVNWQHPFAAMYVTTDLHTACIGAHRGADGAVIITGTGSCGYAHVGDASLSIGGHGFALGDKGSGAWLGLKAAEHVLLALDGFATPTALTEMLLSHLGVKDALGIVEHLAGKSSSCYAQLARNVLDCANAGDQVAIAIVQEGADYISEMARKLFMLNPVRFSMIGGLAEPLQAWLGSDVVAKISETLAPPELGAMYYAQQQFNSATVLEHHHHHH
LSKVVIRRLPPTLTKEQLQEHLQPMPEHDYFEFFSNDTSLYPHMYARAYINFKNQEDIILFRDRFDGYVFLDNKGQEYPAIVEFAPFQKAA

Soluble on expression in E. coli, not soluble:
MQTVGSFSEFLDDMVGRYGPRPAIQYRPRYRTLRWSYLELGTHAAKLASLLDEHGVGSGDRVFLSAENSPHWVAAFFAIAARGAVIVPLNPRSPPEQLANLVRSAGPSLVLASPRRRWEGPPLPVVDIERSGRVPSNRPATRTGPARLAEIIYTSGTTGDPKGVMLTHANLLSDLSAVARAIPLAPDDHVLSLVPLFHVYGQMTSLFCPLAAGCPVSYLTTPTTRSVLEALTHTPVTHLVAVPEVLKTMMDRLESRIGRIPGFLWPLLRGRIRARISGSLRTIVCGGAPLDPVVEEKWWALGFQVLQGYGLTETSPVIAANTPQAHRIGSVGKPLDEVELRIASDGEILVKGPMVMAGYFRDPARTEAAFADGWLKTGDAGRLDADGFLYVYGRKRYMILGPGGENVFPEDIEAVLNRTAGVTDCAVVGLESGGRTLVHAVLLADADEARAAAIVAEANRHLAPHQRIVSWSLWPEPDFPRSVTRKVKKDEVLGRLRREPSTQAVPVGRSTPLRLLLAQVAGTEAGALSDDTRLVPDLGLDSLLRIELVARIEEDLGVCLDEIDIGPLTTVADLENLLVRRQDRMPRVDAHPRWSLSPWASRLRPLAQKVFLQWWIAPFCRLRVSGLEHLAALDGPVIFMANHRSYLDSAVASFALPDRFRYRLAIAAATGVLYTRYRWAVPIGELSLNAFPLPSGPDENIRPGLELIGRLLDDGWNVLIFPEGQMNRGGLGIQPLRRGAGTIGVDMGVPVVPLVIEGTEKVMPPGRIVPRAAAPVSVRFGAPLRAGEAEPHGRMLARIEDALRRLLENSPLEHHHHHH
MILRASVLSALLLVGLGAAPKHSVSANDKRMQDNLVSVIEKQTNKKVRILEIKPLKSSQDLKMVVIEDPDTKYNIPLVVSKDGNLIIGLSNIFFSNKSDDVQLVAETNQKVQALNATQQNSAKLNAIFNEIPADYAIELPSTNAANKDKILYIVSDPMCPHCQKELTKLRDHLKENTVRMVVVGWLGVNSAKKAALIQEEMAKARARGASVEDKISILEKIYSTQYDINAQKEPEDLRTKVENTTKKIFESGVIKGVPFLYHYKA
MGHHHHHHSHMLRVLLSAQTSPARLSGLLLIPPVQPCCLGPSKWGDRPVGGGPSAGPAQGLQRLLEQAKSPGELLRWLGQNPSKVRAHHYSVALRRLGQLLGSRPRPPPVEQVTLQDLSQLIIRNCPSFDIHTIHVCLHLAVLLGGTEVGPALWATELPAPGTAVYALP
MSTEQPERADRLLAAAQRRGHERVEARDFGEAILAEVHCPRYLDFLKNGYAQWRALPGASQEITPHVHPPREESGYPVSIIGRAGFHIADTSSPMGPHTWEAALAASHSACTAAQLVIEGAPAAYSLSRPPGHHATRDRAGGFCFLNHTAVAAQWLRHHVARVAILDVDVHHGNGTQDIFYERDDVLHVSLHADPAYFYPFFTGYAQETGRGIGAGCNLNLPLPIGTDDEAFLAALRIACRRVLDFKPDVVVVALGLDTYEGDPLNAFRITTPGFARIGQAIAGLALPTVLVQEGGYLSDELGENLATFLDGFCQHLEHHHHHH
MGSDKIHHHHHHMKNLQVVEKEFSSLPIIDISALVSGKGNLYSAASQIRQACRESGFFYIIGHGVDENLQQRLEELSRQFFAQDLETKLKIRMALAGIAWRGYFPVGGELTSGKPDLKEGIYFGTELPDEHPLVQAGTPMHGANLFPANMPQFGETVLEYIEAMTKLGHTLMTGIAMSLGLEESYFADRYTSDPLVLFRIFNYPPNLSPSDGNPIWGVGEHTDYGVLTILKQDDSGGLQVKSKSGWVAAPPVPGSFVCNIGDMLDKMTGGFYRSTPHRVQNQSQNHRLSFPFFFDPNFDVEVKPIELDNYSSE
GPGSMDKTKDSLIAVYDLGGGTFDISVLEIAGGVFEVKATNGDTHLGGEDFDLALSDYILEEFRKTSGIDLSKERMALQRVREAAEKAKCELSSAMETEVNLPFITANADGAQHIQMHISRSKFEGITQRLIERSIAPCKQCMKDAGVELKEINDVVLVGGMTRMPKVVEEVKKFFQKDPFRGVNPDEAVALGAATLGGVLRGKASDLILVDVTPLSLGTSVVGDVFTRMIPKNTTIPCMRSHIFTTVDDGQTAIKFKVFQGEREIASENQIRGEFDLSGIPPAPRGVPQIEVTFDIDANGICHVTAKDKATGKTQNITITANGGLSKEQIEQMIRDSEQHAEADRVKRELVEVRNNAETQLTTAERQLGEWKYVSDAEKENVKTLVAELRKAMENPNVAKDDLAAATDKLQKAVMECGRTEYQQAAAANSGQC
MGSDKIHHHHHHMSKRMIITVGDARVGKSTVIKLLLEIFAQQGKRIKVYNQESFPVFQAYEHIATIKKFNLSNDDADAITDDLNHPELDVMIVDMPGQDIEKVIQYIESASLFEVVVKFGWNLTFLQPISHRKDCIYYLNAIIQNATNNANYVVVKNYHFAPEFREYEEKMRKKLLIIGGTEVELMALHRNHYQAMEKADKPYSQVCQDLSIILFWRSFIFQWIKKFHHSVMNNHLAIKYLGLD
MQLYYLGPKGTFSYLACRQYFSEKETTFQPKSNLFEVIKAVADDDTSIGVVPIENSIEGTINIVADALAQQDVFAHGEIRLDINFALYGNGTDSISDIKKVYSIAPAISQTTNYIHQHQFDYDYVDSTIQSLTKIENGVAAIAPLGSGEAYGFTPIDTHIEDYPHNVTRFLVIKNQQQFDQNATSLMFLITPMHDKPGLLASVLNTFALFNINLSWIESRPLKTQLGMYRFFVQADSAITTDIKKVIAILETLDFKVEMIGAFNLEHHHHHH
MGSDKIHHHHHHMEIHMNPWLNAVAQVEALEDLVLNADLVDSMRERWSGLSGSQVGRINFYTPSFKHHETSEVSACGKNAFPAISITGGDCKLQCDHCKAKILEPMIPVRTPEELDRLVDRIVLDGGRGLLLSGGSDHQNVVHYEPYFPTVRKIKDRYPNLQIAMHTGIATPEFARGMEDAGVDVAMMDVIGAQDTINQVYHLRRSVDDFEAALEALVATRMKVVPHIVIGLHYGELLGEWNALEIIQRHLPSALVLVVIMPQYAASSRPFATPAADEIGKFFMDARAALPETPVLLGCARPSGVHRSITDTYAVMAGLNGVAFPSDGMLALAKHLERDVFVTPSCCSMIVGEEVLALGDETTTVPLDYVPAAPKRRPQLRDIPIVFTA
MERKLFAFDIDGTLLNSEKKALDSTREALAKLREQGHLVTLATGRSRYMAQEVIWDLDFTNYVLCNGAAAFVDHEQYYQNLLHAEALERLAQDSDQRGLGFACVGLDDIKKSNQHRAEKMEIAMNSFHFHSPAYDEHFYRQNDIYQALAFYDAEDQCTFEEEYPEFRFIRWHQHSVDVVPKDGSKSATLTYLAKRVGIDAKNIIAFGDGENDREMLSHAGIGVAMGNASPSIQKVATMVTDTNDNDGIWKALKEMKAI
MGEPVIEAQISAGFDSDSGFRHAFSRLAGQPPSNLRGRELLKVDWLQTPIGVMLAVADLEHHHHHH
MGSDKIHHHHHHMTTLALTGDSILQRRLLSTSDPVIKPLFDLIRGCDAAFTNLEVLPNDYRGDPAFDSGGSHFGAPSWVLDDLVEAGFGMFSTATNHTLDYSISGLEYGLDQLDKRGLCHAGAGRHLEEARRAAYLTTPNAAIGMVACGSTYTKGQEAARQTAAMQGRPGLNPLWPDSTYEVTAEQMAVVKEMAEGLGLEKFRQIRISTGFAFEAPEGIFPFNGMNFRVGEQTRHVRHPNPKDLAAIIRWVEEAKLASDIALVSIHAHEHADEKDQPADFIVEFAHAVIDAGADLVVGHGPHLLRGMEIYKGKPIFYSLGNFIGQNEMVRQLPGESYDRFHVDDRLTPTQLYKQRTLDDQKGFPSDERYWQTVVPICHFEGDGLVDVEIHPVSLGLGEQRHRRGRPRLAHGAEAESILNRFSSLSYEFGSTLEVGDTCANAVL
MGSDKIHHHHHHMEMLFLLKNLYRDPLALSRFSQFRCLHISKGEIIQNLNETHEFQVCFVLKGSLCLFRDHIESMPLMAMQNEFFFISSLHQCKIKAMDEVQLVIHACNIVAPYLHSRTIEYLQDISIEEVKPVEVLPIYPLMRSYLDLLVDYMKNGTEIPDLHRAKEYELFSLFKICYKKNEIASIFRDALSNDLQFFVSVMTHYKACRTAKELAVLCGYNDTVFTQLFKKNFHGDTPYQWLQKQTSYEIEFKLKKSTLPIKQIMLDYHFKTFSHFTTYCKRNIGATPNEIRKKGEESRDTPSLETYSVSAND
